Data: patent US7265202
Values belong to the binder of their own block, whether it stands above or below them.

What was measured:
Assay in all cases: cell-based or functional assay
[1] = molecular target: STAT1 in interferon-treated human cells (human) (UniProt P42224)
[2] = molecular target: STAT3-STAT3 homodimer (human) (UniProt P40763)
[3] = molecular target: STAT3-STAT1 heterodimer (human) (UniProt P40763)
[4] = molecular target: STAT3 (from a transfected expression vector)
[5] = molecular target: STAT1 (from a transfected expression vector)
STAT1 (from a transfected expression vector), sequence (P42224 2-750): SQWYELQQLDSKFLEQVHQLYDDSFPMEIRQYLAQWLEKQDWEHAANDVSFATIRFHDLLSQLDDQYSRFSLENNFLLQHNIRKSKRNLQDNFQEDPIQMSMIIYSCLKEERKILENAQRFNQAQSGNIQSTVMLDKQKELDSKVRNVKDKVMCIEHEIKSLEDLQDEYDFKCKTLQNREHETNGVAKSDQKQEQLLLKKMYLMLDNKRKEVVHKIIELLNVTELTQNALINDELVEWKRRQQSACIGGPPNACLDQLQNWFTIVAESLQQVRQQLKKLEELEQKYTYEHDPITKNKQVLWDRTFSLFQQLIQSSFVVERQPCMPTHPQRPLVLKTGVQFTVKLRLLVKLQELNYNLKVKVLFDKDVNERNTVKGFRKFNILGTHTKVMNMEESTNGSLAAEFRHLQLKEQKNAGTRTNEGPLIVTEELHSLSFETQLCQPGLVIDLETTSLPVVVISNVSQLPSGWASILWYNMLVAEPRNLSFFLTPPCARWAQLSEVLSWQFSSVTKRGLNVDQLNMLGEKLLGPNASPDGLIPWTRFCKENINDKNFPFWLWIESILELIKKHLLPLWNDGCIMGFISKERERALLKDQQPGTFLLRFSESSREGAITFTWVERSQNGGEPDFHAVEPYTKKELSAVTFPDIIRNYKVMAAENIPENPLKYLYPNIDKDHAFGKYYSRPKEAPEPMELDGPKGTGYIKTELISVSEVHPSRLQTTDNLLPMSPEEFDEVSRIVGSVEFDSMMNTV

STAT3-STAT1 heterodimer (human), sequence (P40763 2-770 limits assumed, chain 1 of 2): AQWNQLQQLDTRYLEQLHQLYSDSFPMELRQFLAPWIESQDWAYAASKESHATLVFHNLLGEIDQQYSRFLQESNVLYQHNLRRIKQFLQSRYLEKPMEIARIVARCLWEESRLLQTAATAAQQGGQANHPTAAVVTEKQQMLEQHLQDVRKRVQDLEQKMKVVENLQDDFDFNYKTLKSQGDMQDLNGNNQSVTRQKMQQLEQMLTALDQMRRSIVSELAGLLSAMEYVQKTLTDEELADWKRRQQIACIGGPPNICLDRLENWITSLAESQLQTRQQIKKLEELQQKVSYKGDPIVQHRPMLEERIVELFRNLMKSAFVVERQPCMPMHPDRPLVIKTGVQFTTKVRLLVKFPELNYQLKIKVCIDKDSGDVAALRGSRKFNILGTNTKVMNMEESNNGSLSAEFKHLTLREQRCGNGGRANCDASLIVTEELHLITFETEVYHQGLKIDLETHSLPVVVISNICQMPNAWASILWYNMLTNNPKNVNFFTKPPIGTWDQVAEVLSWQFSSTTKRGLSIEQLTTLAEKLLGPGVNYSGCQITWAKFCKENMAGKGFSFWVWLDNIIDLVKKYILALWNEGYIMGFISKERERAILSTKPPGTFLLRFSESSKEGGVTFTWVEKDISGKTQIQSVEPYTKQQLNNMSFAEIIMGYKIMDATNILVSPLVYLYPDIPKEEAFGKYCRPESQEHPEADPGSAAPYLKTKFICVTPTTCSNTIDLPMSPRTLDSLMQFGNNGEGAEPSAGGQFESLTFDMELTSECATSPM
STAT3-STAT1 heterodimer (human), sequence (P42224 2-750 limits assumed, chain 2 of 2, further chain): as the sequence (P42224 2-750) above
STAT3-STAT3 homodimer (human), sequence (P40763 2-770 limits assumed): as the sequence (P40763 2-770 limits assumed, chain 1 of 2) above
STAT1 in interferon-treated human cells (human), sequence (P42224 2-750 limits assumed): as the sequence (P42224 2-750) above

DNA binding activity in gel retardation assay, nuclear extracts of IFN-treated Daudi B cells [1]: 45 ng
B1: recombinant fusion protein of glutathione-S-transferase (GST) with PIAS1 (protein, not shown: a dimerising Fc or GST)
chain: MADSAELKQMVMSLRVSELQVLLGYAGRNKHGRKHELLTKALHLLKAGCSPAVQMKIKELYRRRFPQKIMTPADLSIPNVHSSPMPPTLSPSTIPQLTYDGHPASSPLLPVSLLGPKHELELPHLTSALHPVHPDIKLQKLPFYDLLDELIKPTSLASDNSQRFRETCFAFALTPQQVQQISSSMDISGTKCDFTVQVQLRFCLSETSCPQEDHFPPNLCVKVNTKPCSLPGYLPPTKNGVEPKRPSRPINITSLVRLSTTVPNTIVVSWTAEIGRNYSMAVYLVKQLSSTVLLQRLRAKGIRNPDHSRALIKEKLTADSDSEIATTSLRVSLLCPLGKMRLTIPCRALTCSHLQCFDATLYIQMNEKKPTWVCPVCDKKAPYEHLIIDGLFMEILKYCTDCDEIQFKEDGSWAPMRSKKVQEVTASYNGVDGCLSSTLEHQVASHNQSSNKNKKVEVIDLTIDSSSDEEEEEPPAKRTCPSLSPTSPLSNKGILSLPHQASPVSRTPSLPAVDTSYINTSLIQDYRHPFHMTPMPYDLQGLDFFPFLSGDNQHYNTSLLAAAAAAVSDDQDLLHSSRFFPYTSSQMFLDQLSAGGSTSLPATNGSSSGSNSSLVSSNSLRESHGHGVASRSSADTASIFGIIPDIISLD

DNA-binding activity in mobility gel shift assay, IL6-treated HepG2 nuclear extracts [2]: 100 ng
DNA-binding activity in mobility gel shift assay, IL6-treated HepG2 nuclear extracts [3]: 100 ng
B2: recombinant fusion protein of GST with PIAS3 (protein, not shown: a dimerising Fc or GST)
chain: MVMSFRVSELQVLLGFAGRNKSGRKHELLAKALHLLKSSCAPSVQMKIKELYRRRFPRKTLGPSDLSLLSLPPGTSPPVHPDVTMKPLPFYEVYGELIRPTTLASTSSQRFEEAHFTFALTPQQLQQILTSREVLPGAKCDYTIQVQLRFCLCETSCPQEDYFPPNLFVKVNGKLCPLPGYLPPTKNGAEPRGPAVRSTSHPWLDSQPLSPTPSLLIGHLSLDGITPCPCLVRQLTAGTLLQKLRAKGIRNPDHSRALIKEKLTADPDSEVATTSLPGVTHVPARKMRLTVPCRALTCAHLQSFDAALYLQMNEKKPTWTCPVCDKKAPYESLIIDGLFMEILNSCSDDDEIQFMEDGSWCPMKPKKEASEVCPPPGYGLDGLQYSAVQEGIQPESKKRVEVIDLTIESSSDEEDLPPTKKHCSPTSAAIPALPGSKGALTSGHQPSSVLRSPAMGTLGSDFLSSLPVHEYPPAFPLGADIQGLDLFSFLQTESQQYGPSVIISLDEQDTLGHFFQYRGTPSHFLGPLAPTLGSCHGSSTPAPPPGRVSSIVAPGSSLREGHGGPLPSGPSLTGCRSDVISLD

(4X)IRF-1 luciferase reporter in human 293 cells, IFN-α stimulation [4]: 1 µg
(4X)IRF-1 luciferase reporter in human 293 cells, IFN-α stimulation [5]: 1 µg
B3: FLAG-tagged PIAS3 (protein, not shown: small tags and cut ends)
chain: B2 chain
